In patent US20040224408A1, “THAP proteins as nuclear receptors for chemokines and roles in transcriptional regulation, cell proliferation and cell differentiation” (published 2004):
Where a chain is given by its changes, count along the chain named. Names and notes keep the numbering of the source. One block for each binder: values may come before it.

Columns and labels:
[1] = molecular target: T1, GST-Par4DD fusion protein (pGEX-2T-Par4DD, Par4 amino acids 250-342) (human, UniProt Q96IZ0 248-340); assay: in vitro THAP1/Par4 interaction assay (GST pull-down with GST-Par4DD)
T1 construct: Expressed in E. coli DH5alpha and immobilized on glutathione sepharose; not shown: Glutathione S-transferase (GST) encoded by the pGEX-2T prokaryotic expression vector (Amersham Pharmacia Biotech); N-ter
T1 chain: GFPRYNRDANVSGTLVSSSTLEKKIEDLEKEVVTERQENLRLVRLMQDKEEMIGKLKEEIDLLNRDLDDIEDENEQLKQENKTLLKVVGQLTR
Experimental: THAP1 mutants were also tested in the in vitro THAP1/Par4 interaction assay. In vitro-translated THAP1 mutants were generated with the TNT-coupled reticulocyte lysate system (Promega, Madison, Wis., USA) using pGBKT7-THAP1-C1, -C2, -C3, -N1, -N2 or -N3 vector as template. 25 μl of each ³⁵S-labelled THAP1 mutant was incubated with immobilized GST or GST-Par4 protein overnight at 4° C., in the following binding buffer: 10 mM NaPO4 pH 8.0, 140 mM NaCl, 3 mM MgCl2, 1 mM dithiothreitol (DTT), 0.05% NP40, and 0.2 mM phenylmethyl sulphonyl fluoride (PMSF), 1 mM Na Vanadate, 50 mM β Glycerophosphate, 25 μg/ml chimotrypsine, 5 μg/ml aprotinin, 10 μg/ml Leupeptin. Beads were then washed 5 times in 1 ml binding buffer. Bound proteins were eluted with 2×Laemmli SDS-PAGE sample buffer, fractionated by 10% SDS-PAGE and visualized by fluorography using Amplify (Amersham Pharmacia Biotech). As expected, THAP1-C1, -C2, -C3, -and -N3 interacted with GST/Par4DD (FIG. 4B).
for mutant THAP1ΔQRCRR. The resulting PCR fragments were digested with EcoRI and BamHI, and cloned in frame downstream of the Gal4 Binding Domain (Gal4-BD) in pGBKT7 two-hybrid vector (Clontech) to generate pGBKT7-THAP1-RR/AA and −Δ(QRCRR), or downstream of the Enhanced Green Fluorescent Protein (EGFP) ORF in pEGFP.C2 vector (Clontech) to generate pEGFP.C2-THAP1-RR/AA and −Δ(QRCRR). […]

[2] = molecular target: T2, Par4 leucine zipper/death domain (Par4DD, amino acids 250-342) (human, UniProt Q96IZ0 248-340); assay: yeast two-hybrid
T2 construct: also called myc-Par4DD; mycPar4DD
T2 chain: T1 chain
Experimental: Two-hybrid interaction between THAP1 mutants and Par4DD was tested by cotransformation of AH109 with pGBKT7-THAP1-C1, -C2, -C3, -N1, -N2 or -N3 and pGADT7-Par4DD and selection of transformants by His and Ade double auxotrophy according to manufacturer's instructions ([…] two-hybrid system 3, Clontech).
for mutant THAP1ΔQRCRR. The resulting PCR fragments were digested with EcoRI and BamHI, and cloned in frame downstream of the Gal4 Binding Domain (Gal4-BD) in pGBKT7 two-hybrid vector (Clontech) to generate pGBKT7-THAP1-RR/AA and −Δ(QRCRR), or downstream of the Enhanced Green Fluorescent Protein (EGFP) ORF in pEGFP.C2 vector (Clontech) to generate pEGFP.C2-THAP1-RR/AA and −Δ(QRCRR). THAP1 RR/AA and THAP1ΔQRCRR THAP1 mutants were then tested in the three THAP1/Par4 interaction assays (two-hybrid assay, in vitro THAP1/Par4 interaction assay, in vivo THAP1/Par4 interaction assay) as described above for the THAP1-C1, -C2, -C3, -N1, -N2 or -N3 mutants.

human THAP1 (THanatos …) [3] = molecular target: T3, human THAP1 (THanatos (death)-Associated Protein-1), full length (human, UniProt Q9NVV9 1-213); assay: yeast two-hybrid, both orientations (His/Ade selection)
T3 construct: also called hTHAP1; FLJ10477
T3 sequence: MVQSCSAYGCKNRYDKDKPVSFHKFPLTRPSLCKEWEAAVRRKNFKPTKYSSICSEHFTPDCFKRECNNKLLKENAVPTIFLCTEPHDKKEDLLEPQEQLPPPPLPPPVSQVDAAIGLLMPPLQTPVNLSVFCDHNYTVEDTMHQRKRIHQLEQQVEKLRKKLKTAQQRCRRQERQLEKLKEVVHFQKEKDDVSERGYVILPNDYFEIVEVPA
Description: We then examined whether the leucine zipper/death domain at the C-terminus of Par4, previously shown to be involved in Par4 binding to WT-1 and aPKC, was required for the interaction between THAP1 and Par4. Two Par4 mutants were constructed for that purpose, Par4A and Par4DD. Par4A lacks the leucine zipper/death domain while Par4DD contains this domain. pGBKT7-Par4A(amino acids 1-276) and pGADT7-Par4A. were constructed by sub-cloning a EcoRI-BglII fragment from pGADT7-Par4 into the EcoRI and BamHI sites of pGBKT7 and pGADT7. Par4DD (amino acids 250-342) was amplified by PCR, using pGBKT7-Par4 as template, with primers Par4.4 (5′-[…]-3′) (SEQ ID NO: 193) and Par4.5, and cloned into the EcoRI and BamHI sites of pGBKT7 and pGADT7 to obtain pGBKT7-Par4DD and pGADT7-Par4DD. Two-hybrid interaction between THAP1 and Par4 mutants was tested by cotransformation of AH109 with pGBKT7-THAP1 and pGADT7-Par4A or pGADT7-Par4DD and selection of transformants by His and Ade double auxotrophy according to manufacturer's instructions ([…] two-hybrid system 3, Clontech). […] Similar results were obtained when two-hybrid experiments were performed in the opposite orientation using Par4 or Par4 mutants (Par4A and Par4DD) as baits instead of THAP1 (FIG. 3A).

human THAP2 = molecular target: T4, human THAP2 (human, UniProt Q9H0W7 1-228, limits assumed); assay: yeast two-hybrid using Par-4 wild type bait (FIG. 10B)
T4 construct: also called hTHAP2

human THAP3 = molecular target: T5, human THAP3 (human, UniProt Q8WTV1 1-239, limits assumed); assay: as above
T5 construct: also called hTHAP3
T5 sequence: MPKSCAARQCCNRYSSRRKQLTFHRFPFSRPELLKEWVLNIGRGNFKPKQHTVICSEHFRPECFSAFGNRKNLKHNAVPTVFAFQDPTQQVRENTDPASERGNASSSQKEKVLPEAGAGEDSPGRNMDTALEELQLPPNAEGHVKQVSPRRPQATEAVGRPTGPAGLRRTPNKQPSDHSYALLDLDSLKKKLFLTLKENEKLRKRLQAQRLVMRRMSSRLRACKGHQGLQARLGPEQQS

human THAP1 (THanatos …) [4] = molecular target: T3, human THAP1 (THanatos …); assay: yeast two-hybrid, BD7-THAP1 with AD7-SLC/CCL21ΔCOOH; identical results in the opposite orientation
Description: For two-hybrid assays, yeast cells were cotransformed with BD7-THAP1 and AD7-SLC/CCL21 or AD7-SLC/CCL21ΔCOOH expression vectors. AD7-SLC/CCL21 or AD7-SLC/CCL21ΔCOOH expression vectors were generated by subcloning BamHI fragment (encoding SLC amino acids 24-134) or BamHI-PstI fragment (encoding SLC amino acids 24-102) from pGKT7-SLC/CCL21 (see example 15) into pGADT7 expression vector (Clontech). Transformants were selected on media lacking histidine and adenine. […] Identical results were obtained by cotransformation of AD7-THAP1 with BD7-SLC/CCL21 or BD7-SLC/CCL21ΔCOOH.

T4 sequence (Q9H0W7 whole entry): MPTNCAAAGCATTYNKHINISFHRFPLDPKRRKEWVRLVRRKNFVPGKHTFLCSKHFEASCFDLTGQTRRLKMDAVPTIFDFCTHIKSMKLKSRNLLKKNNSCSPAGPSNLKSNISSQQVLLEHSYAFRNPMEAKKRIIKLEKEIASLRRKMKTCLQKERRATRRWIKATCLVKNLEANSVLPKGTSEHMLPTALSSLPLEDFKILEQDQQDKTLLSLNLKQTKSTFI

binding result [1]: no binding
B1: THAP1 RR/AA mutant (R171A, R172A) (other)
chain: T3 sequence with R171A, R172A
notes: Tested as a Gal4-BD fusion (pGBKT7), as in vitro translated protein and as an EGFP fusion; also called THAP RR/AA
binding result [2]: no binding

binding result (human THAP2): binds
binding result (human THAP3): binds
B2: human prostate apoptosis response-4 protein (PAR4), full length (other)
chain: MATGGYRTSSGLGGSTTDFLEEWKAKREKMRAKQNPPGPAPPGGGSSDAAGKPPAGALGTPAAAAANELNNNLPGGAPAAPAVPGPGGVNCAVGSAMLTRAPPARGPRRSEDEPPAASASAAPPPQRDEEEPDGVPEKGKSSGPSARKGKGQIEKRKLREKRRSTGVVNIPAAECLDEYEDDEAGQKERKREDAITQQNTIQNEAVNLLDPGSSYLLQEPPRTVSGRYKSTTSVSEEDVSSRYSRTDRSGFPRYNRDANVSGTLVSSSTLEKKIEDLEKEVVTERQENLRLVRLMQDKEEMIGKLKEEIDLLNRDLDDIEDENEQLKQENKTLLKVVGQLTR
notes: Tested as a Gal4-BD (pGBKT7-Par4) or Gal4-AD (pGADT7-Par4) fusion in yeast two-hybrid; also called Par4 wild type
binding result (human THAP1 (THanatos …) [3]): binds

B3: SLC/CCL21ΔCOOH deletion mutant lacking the basic carboxy-terminal extension (ligand)
chain: SDGGAQDCCLKYSQRKIPAKVVRSYRKQEPSLGCSIPAILFLPRKRSQAELCADPKELWVQQLMQHLDKTPSPQKPAQG
notes: Tested as a Gal4-AD or Gal4-BD fusion and as in vitro translated protein; also called SLC/CCL21?COOH
binding result (human THAP1 (THanatos …) [4]): binds
